One assay addresses mu opiate receptor. The assay is described as follows: cell-based or functional assay.
Assay [1] deals with p141-ubiquitin fusion protein (human) (UniProt P0CG47). The assay is described as follows: cell-based or functional assay.

This is an account of results in patent publication US7115267.

p141-ubiquitin fusion protein (human), sequence (P0CG47 other isoform, or with tags, fused parts or gaps): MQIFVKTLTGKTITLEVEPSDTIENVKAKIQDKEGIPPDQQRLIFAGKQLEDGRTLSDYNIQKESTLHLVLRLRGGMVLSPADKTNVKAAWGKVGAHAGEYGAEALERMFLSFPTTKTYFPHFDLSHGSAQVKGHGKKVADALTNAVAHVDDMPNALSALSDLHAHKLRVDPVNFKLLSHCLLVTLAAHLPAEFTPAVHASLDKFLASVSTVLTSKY

Take “Purified human hemoglobin alpha chain (from UniProt P69905 2-142)”: the % Kill in the CFU-MIX cycling assay, Human Alpha (100 ng/ml) + CTOP 10^-7 M (0 without CTOP; control 42; CTOP alone 36) with mu opiate receptor amounted to 20%. For the substance “UBP1 ubiquinase (from UniProt P25037 1-809) (enzyme)”, the digestion of the ubiquitin fusion protein in vivo (co-expression in bacteria) in assay [1] stood at 70%.
